Laboratory results taken from US6869925 (Amgen, dated 2005).

What was measured:
[1] = target: SLPI binding sites on U937 cells (human monocyte cell line; intact cells, PMA-induced cells or plasma membranes) (human); experiment: competition with 125I-SLPI, U937 plasma membranes, Kd by Cheng-Prusoff
[2] = target: SLPI binding sites on U937 cells (human monocyte cell line; intact cells, PMA-induced cells or plasma membranes) (human); experiment: competition with 125I-SLPI, U937 plasma membranes, competitor at 83.9 nM
[3] = target: SLPI binding sites on U937 cells (human monocyte cell line; intact cells, PMA-induced cells or plasma membranes) (human); experiment: competition with 125I-SLPI, U937 plasma membranes, competitor at 268 nM
[4] = target: SLPI binding sites on U937 cells (human monocyte cell line; intact cells, PMA-induced cells or plasma membranes) (human); experiment: competition with 125I-SLPI, intact U937 cells, competitor at 0.25 nM
[5] = target: SLPI binding sites on U937 cells (human monocyte cell line; intact cells, PMA-induced cells or plasma membranes) (human); experiment: competition with 125I-SLPI, intact U937 cells, competitor at 0.078 nM
[6] = target: SLPI binding sites on HuT78 cells (human T cell line) (human); experiment: competition with 125I-SLPI, intact HuT78 cells, competitor at 0 nM
[7] = target: SLPI binding sites on U937 cells (human monocyte cell line; intact cells, PMA-induced cells or plasma membranes) (human); experiment: competition with 125I-SLPI, intact U937 cells, competitor at 26 nM
[8] = target: SLPI binding sites on HuT78 cells (human T cell line) (human); experiment: competition with 125I-SLPI, intact HuT78 cells, competitor at 84 nM
[9] = target: SLPI binding sites on HuT78 cells (human T cell line) (human); experiment: competition with 125I-SLPI, intact HuT78 cells, competitor at 8.2 nM
[10] = target: SLPI binding sites on U937 cells (human monocyte cell line; intact cells, PMA-induced cells or plasma membranes) (human); experiment: competition with 125I-SLPI, U937 plasma membranes, competitor at 2750 nM
[11] = target: SLPI binding sites on U937 cells (human monocyte cell line; intact cells, PMA-induced cells or plasma membranes) (human); experiment: competition with 125I-SLPI, intact U937 cells, competitor at 270 nM
[12] = target: SLPI binding sites on U937 cells (human monocyte cell line; intact cells, PMA-induced cells or plasma membranes) (human); experiment: competition with 125I-SLPI, U937 plasma membranes, competitor at 2.56 nM
[13] = target: SLPI binding sites on U937 cells (human monocyte cell line; intact cells, PMA-induced cells or plasma membranes) (human); experiment: competition with 125I-SLPI, U937 plasma membranes, competitor at 8.20 nM
[14] = target: SLPI binding sites on U937 cells (human monocyte cell line; intact cells, PMA-induced cells or plasma membranes) (human); experiment: competition with 125I-SLPI, intact U937 cells, competitor at 0 nM
[15] = target: SLPI binding sites on U937 cells (human monocyte cell line; intact cells, PMA-induced cells or plasma membranes) (human); experiment: competition with 125I-SLPI, intact U937 cells, competitor at 0.024 nM
[16] = target: SLPI binding sites on U937 cells (human monocyte cell line; intact cells, PMA-induced cells or plasma membranes) (human); experiment: competition with 125I-SLPI, intact U937 cells, competitor at 0.80 nM
[17] = target: SLPI binding sites on U937 cells (human monocyte cell line; intact cells, PMA-induced cells or plasma membranes) (human); experiment: competition with 125I-SLPI, intact U937 cells, Kd by Cheng-Prusoff
[18] = target: SLPI binding sites on U937 cells (human monocyte cell line; intact cells, PMA-induced cells or plasma membranes) (human); experiment: competition with 125I-SLPI, intact U937 cells, competitor at 2750 nM
[19] = target: SLPI binding sites on U937 cells (human monocyte cell line; intact cells, PMA-induced cells or plasma membranes) (human); experiment: competition with 125I-SLPI, intact U937 cells, competitor at 8.2 nM
[20] = target: SLPI binding sites on HuT78 cells (human T cell line) (human); experiment: competition with 125I-SLPI, intact HuT78 cells, Kd by Cheng-Prusoff
[21] = target: SLPI binding sites on HuT78 cells (human T cell line) (human); experiment: competition with 125I-SLPI, intact HuT78 cells, competitor at 2.6 nM
[22] = target: SLPI binding sites on U937 cells (human monocyte cell line; intact cells, PMA-induced cells or plasma membranes) (human); experiment: competition with 125I-SLPI, intact U937 cells, competitor at 84 nM
[23] = target: SLPI binding sites on U937 cells (human monocyte cell line; intact cells, PMA-induced cells or plasma membranes) (human); experiment: competition with 125I-SLPI, intact U937 cells, competitor at 860 nM
[24] = target: SLPI binding sites on HuT78 cells (human T cell line) (human); experiment: competition with 125I-SLPI, intact HuT78 cells, competitor at 0.80 nM
[25] = target: SLPI binding sites on HuT78 cells (human T cell line) (human); experiment: competition with 125I-SLPI, intact HuT78 cells, competitor at 2750 nM
[26] = target: SLPI binding sites on U937 cells (human monocyte cell line; intact cells, PMA-induced cells or plasma membranes) (human); experiment: competition with 125I-SLPI, U937 plasma membranes, competitor at 0 nM
[27] = target: SLPI binding sites on U937 cells (human monocyte cell line; intact cells, PMA-induced cells or plasma membranes) (human); experiment: competition with 125I-SLPI, U937 plasma membranes, competitor at 0.800 nM
[28] = target: SLPI binding sites on U937 cells (human monocyte cell line; intact cells, PMA-induced cells or plasma membranes) (human); experiment: competition with 125I-SLPI, intact U937 cells, competitor at 2.6 nM
[29] = target: HIV-1 envelope protein gp120

Sequence of SLPI mutein Val 72 (P03973 other isoform, or with tags, fused parts or gaps mutant): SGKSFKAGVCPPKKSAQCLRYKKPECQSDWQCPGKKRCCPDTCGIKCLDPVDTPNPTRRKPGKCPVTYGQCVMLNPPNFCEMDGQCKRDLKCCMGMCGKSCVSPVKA
Sequence of SLPI mutein Lys 72 (P03973 other isoform, or with tags, fused parts or gaps mutant): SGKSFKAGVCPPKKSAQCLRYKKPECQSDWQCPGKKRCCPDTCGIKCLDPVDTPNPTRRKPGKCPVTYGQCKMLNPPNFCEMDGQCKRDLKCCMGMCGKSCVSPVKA
Sequence of SLPI mutein Gly 20 (P03973 other isoform, or with tags, fused parts or gaps mutant): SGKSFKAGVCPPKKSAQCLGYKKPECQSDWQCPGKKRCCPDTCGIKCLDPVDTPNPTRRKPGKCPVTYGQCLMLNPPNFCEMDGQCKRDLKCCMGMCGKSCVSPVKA
Sequence of alpha-1 protease inhibitor (P01009 25-418 limits assumed): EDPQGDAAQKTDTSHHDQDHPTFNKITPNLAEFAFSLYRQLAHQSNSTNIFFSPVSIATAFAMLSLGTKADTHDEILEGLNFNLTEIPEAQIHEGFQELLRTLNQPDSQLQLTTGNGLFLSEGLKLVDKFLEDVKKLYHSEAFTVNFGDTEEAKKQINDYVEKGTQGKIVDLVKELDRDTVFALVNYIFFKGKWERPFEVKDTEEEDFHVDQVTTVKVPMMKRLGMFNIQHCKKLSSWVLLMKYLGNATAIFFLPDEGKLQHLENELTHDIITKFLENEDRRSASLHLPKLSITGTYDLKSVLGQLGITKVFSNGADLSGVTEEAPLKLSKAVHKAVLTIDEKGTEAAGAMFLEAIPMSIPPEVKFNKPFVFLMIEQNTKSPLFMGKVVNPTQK

| Molecule | Kd [1] [nM] | CPM *SLPI BOUND [2] [cpm] | CPM *SLPI BOUND [3] [cpm] | % *SLPI BOUND [6] [%] | % *SLPI BOUND [8] [%] | % *SLPI BOUND [9] [%] | CPM *SLPI BOUND [10] [cpm] | CPM *SLPI BOUND [12] [cpm] | CPM *SLPI BOUND [13] [cpm] | % *SLPI BOUND [14] [%] | % *SLPI BOUND [16] [%] | Kd [17] [nM] | % *SLPI BOUND [18] [%] | % *SLPI BOUND [19] [%] | Kd [20] [nM] | % *SLPI BOUND [21] [%] | % *SLPI BOUND [22] [%] | % *SLPI BOUND [24] [%] | CPM *SLPI BOUND [26] [cpm] | CPM *SLPI BOUND [27] [cpm] | further results |
| --- | --- | --- | --- | --- | --- | --- | --- | --- | --- | --- | --- | --- | --- | --- | --- | --- | --- | --- | --- | --- | --- |
| HIV-1 envelope protein gp120 | 400 |  |  |  |  |  |  |  |  |  |  |  |  |  |  |  |  |  |  |  |  |
| SLPI mutein Gly 20 (from UniProt P03973 26-132) | 5 | 2490 | 1620 | 100 | 50 | 103 | 1500 | 11400 | 7400 | 130 | 91 | 3.5 | 5 | 49 | 13 | 91 | 11 | 109 | 18700 | 14900 | % *SLPI BOUND [4]: 110%; % *SLPI BOUND [5]: 117%; % *SLPI BOUND [7]: 28%; % *SLPI BOUND [11]: 6%; % *SLPI BOUND [15]: 110%; % *SLPI BOUND [23]: 5%; % *SLPI BOUND [25]: 7% |
| SLPI mutein Lys 72 (from UniProt P03973 26-132) | 5 | 3500 | 3240 | 100 | 86 | 116 | 5010 | 12200 | 7620 | 117 | 86 | 2.5 | 4 | 39 | 200 | 118 | 10 | 105 | 18700 | 14200 | % *SLPI BOUND [4]: 103%; % *SLPI BOUND [5]: 113%; % *SLPI BOUND [7]: 21%; % *SLPI BOUND [11]: 6%; % *SLPI BOUND [15]: 116%; % *SLPI BOUND [23]: 5%; % *SLPI BOUND [28]: 71%; % *SLPI BOUND [25]: 34% |
| SLPI mutein Val 72 (from UniProt P03973 26-132) | 19 | 3380 | 1740 | 100 | 43 | 81 | 923 | 11600 | 9240 | 95 | 90 | 30 | 8 | 78 | 9 | 96 | 48 | 93 | 18700 | 14000 | % *SLPI BOUND [28]: 80%; % *SLPI BOUND [25]: 14% |
| alpha-1 protease inhibitor (from UniProt P01009 25-418) | 1000 |  |  |  |  |  |  |  |  |  |  |  |  |  |  |  |  |  |  |  |  |
| bFGF (from UniProt P09038 143-288) (ligand) |  | 15000 | 14400 |  |  |  | 14700 | 13500 | 14500 |  |  |  |  |  |  |  |  |  | 18700 | 14000 |  |
| lysozyme (enzyme) |  | 15500 | 14900 |  |  |  | 15900 | 14700 | 15000 |  |  |  |  |  |  |  |  |  | 18700 | 15200 |  |
| human neutrophil elastase (protein) IVGGRRARPHAWPFMVSLQLRGGHFCGATLIAPNFVMSAAHCVANVNVRAVRVVLGAHNLSRREPTRQVFAVQRIFENGYDPVNLLNDIVILQLNGSATINANVQVAQLPAQGRRLGNGVQCLAMGWGLLGRNRGIASVLQELNVTVVTSLCRRSNVCTLVRGRQAGVCFGDSGSPLVCNGLIHGIASFVRGGCASGLYPDAFAPVAQFVNWIDSIIQ |  |  |  |  |  |  |  |  |  |  |  |  |  |  |  |  |  |  |  |  | proteolytic cleavage of gp120 (Western blot, reducing SDS-PAGE) [29]: Incubation at 37° for 30 min, with 10 nM HNE yielded primarily 2 bands on Western blot |
